Results on four molecules are retold here after article PMC6182141, “Lytic gene expression in the temperate bacteriophage GIL01 is activated by a phage-encoded LexA homologue”.

Changes are numbered by the printed parent chain.

The target in series [1] is T1, gp7 (Bacillus thuringiensis phage GIL01) (UniProt Q7WSG2).
T1 sequence: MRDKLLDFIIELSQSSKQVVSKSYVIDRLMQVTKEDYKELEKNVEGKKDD
Description: EMSA. To be noted: SPR: 25 mM Tris-HCl pH 7.4, 140 mM NaCl, 5 mM EDTA, 2 mM DTT, 0.1 mg/ml BSA, 0.005% P20, 25 C; EMSA and footprinting buffers as in cited work. Background: In EMSA bound probe runs differently from free probe, usually more slowly.

Series [2] concerns the target T2, gp6 (Bacillus thuringiensis phage GIL01, UniProt Q5ILC6).
T2 sequence: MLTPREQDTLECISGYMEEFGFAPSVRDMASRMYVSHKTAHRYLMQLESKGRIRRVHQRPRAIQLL
Description: SPR; gp6 2.34-150 nM (Fig. 6D); SPR: 25 mM Tris-HCl pH 7.4, 140 mM NaCl, 5 mM EDTA, 2 mM DTT, 0.1 mg/ml BSA, 0.005% P20, 25 C; EMSA and footprinting buffers as in cited work. The note with it: protein: recombinant; tags: N-terminal His6 + thrombin site; chain copies: 2; label: 3'-biotin-TEG on S1 capture oligo; 36 bp duplex, 5' overhang 15 nt annealed to immobilized S1 (S39). (Surface plasmon resonance follows binding to a sensor surface in real time, without labels.)

A further series deals with T3, gp6 K38A (Bacillus thuringiensis phage GIL01, UniProt Q5ILC6 1-66, K38A).
T3 sequence: T2 sequence with K38A
Description: SPR; 2.34-150 nM; SPR: 25 mM Tris-HCl pH 7.4, 140 mM NaCl, 5 mM EDTA, 2 mM DTT, 0.1 mg/ml BSA, 0.005% P20, 25 C; EMSA and footprinting buffers as in cited work. The note with it: protein: recombinant; tags: N-terminal His6 + thrombin site; chain copies: 2; label: 3'-biotin-TEG on S1 capture oligo; 36 bp duplex, 5' overhang 15 nt annealed to immobilized S1 (S39).

Series [3] deals with T2, gp6. Description: SPR; SPR: 25 mM Tris-HCl pH 7.4, 140 mM NaCl, 5 mM EDTA, 2 mM DTT, 0.1 mg/ml BSA, 0.005% P20, 25 C; EMSA and footprinting buffers as in cited work. The note with it: protein: recombinant, tags: N-terminal His6 + thrombin site, chain copies: 2, label: 3'-biotin-TEG on S1 capture oligo, 5' overhang 15 nt annealed to immobilized S1 (S39).

In the case of “TGTTGAACAAGGAATAGTAGAAAAGGACTAGCAAAGTTGCTAGTCTTTTTTATTTGTCCAAAATGACACACGTGTGACGTTATGCGGAACACTCGTTCGTATTATAGTATACATATAGCGAACAAACATTCGATAAGGAGTGTGACAAAGTGGATGCTTTAACGGAACTAATCATAGCTAACAATAAAGTGGAAATGCTT (double strand) [P3 fragment with dinBox2 and dinBox3 (EMSA7/EMSA10)]”, the binding entry in series [1] is given as “no binding”.

B1: B23_Swt (gp6 site) (dsDNA)
DNA 1: GTTACTACTCGAGCGATTTGTCCAAAATGACACACGTGTGACGTTATGCGG
DNA 2: CCGCATAACGTCACACGTGTGTCATTTTGGACAAAT
As to B1, the figures for the binding result with gp6 [2] and with gp6 K38A were “binds” and “no binding”, respectively.

B2: B23_Smns (triple mutant gp6 site) (dsDNA)
DNA 1: B1 DNA 1 with G29T, A32C, G38A
DNA 2: B1 DNA 2 with C14T, T20G, C23A
B2: the binding result in the series with gp6 [3] (36 bp duplex) is “no binding”.

B3: B23_Lwt (-35, dinBox2, dinBox3) (dsDNA)
DNA 1: GTTACTACTCGAGCGATTTGTCCAAAATGACACACGTGTGACGTTATGCGGAACACTCGTTCGTATTATAGTATACATATAGCGAACAAACATTCGATAAGGAG
DNA 2: CTCCTTATCGAATGTTTGTTCGCTATATGTATACTATAATACGAACGAGTGTTCCGCATAACGTCACACGTGTGTCATTTTGGACAAAT
With B3, the binding result with gp6 [3] (89 bp duplex) is “binds”.
